Results as given in patent US20180088134A1.

Key:
[1] = target: non-mutated human leptin (human) (UniProt P41159); assay: ELISA, plate-bound leptin receptor-Fc, detection with polyclonal anti-leptin; sample 1, HEK293 supernatant
[2] = target: non-mutated human leptin (human) (UniProt P41159); assay: receptor-Fc ELISA value divided by anti-leptin antibody ELISA value; WHO standard 6 ng/ml
[3] = target: non-mutated human leptin (human) (UniProt P41159); assay: receptor-Fc ELISA value divided by anti-leptin antibody ELISA value; sample 1, HEK293 supernatant
[4] = target: non-mutated human leptin (human) (UniProt P41159); assay: ELISA, plate-bound leptin receptor-Fc; sample 4, purified recombinant leptin
[5] = target: non-mutated human leptin (human) (UniProt P41159); assay: ELISA, plate-bound leptin receptor-Fc; sample 8, blood donor serum/plasma CS-2
[6] = target: non-mutated human leptin (human) (UniProt P41159); assay: ELISA, plate-bound leptin receptor-Fc; sample 6, WHO standard NIBSC 97/594, nominal 2 ng/ml
[7] = target: non-mutated human leptin (human) (UniProt P41159); assay: receptor-Fc ELISA value divided by anti-leptin antibody ELISA value; sample 9, blood donor serum/plasma
[8] = target: non-mutated human leptin (human) (UniProt P41159); assay: ELISA, plate-bound leptin receptor-Fc; sample 11, blood donor serum/plasma IDB-8960
[9] = target: non-mutated human leptin (human) (UniProt P41159); assay: receptor-Fc ELISA value divided by anti-leptin antibody ELISA value; sample 12, blood donor serum/plasma
[10] = target: non-mutated human leptin (human) (UniProt P41159); assay: ELISA, plate-bound leptin receptor-Fc; sample 7, WHO standard NIBSC 97/594, nominal 6 ng/ml
[11] = target: non-mutated human leptin (human) (UniProt P41159); assay: receptor-Fc ELISA value divided by anti-leptin antibody ELISA value; sample 10, blood donor serum/plasma
[12] = target: non-mutated human leptin (human) (UniProt P41159); assay: ELISA, plate-bound leptin receptor-Fc; sample 10, blood donor serum/plasma IDB-883-
[13] = target: non-mutated human leptin (human) (UniProt P41159); assay: ELISA, plate-bound leptin receptor-Fc; sample 9, blood donor serum/plasma DO-2226
[14] = target: non-mutated human leptin (human) (UniProt P41159); assay: receptor-Fc ELISA value divided by anti-leptin antibody ELISA value; sample 8, blood donor serum/plasma
[15] = target: non-mutated human leptin (human) (UniProt P41159); assay: receptor-Fc ELISA value divided by anti-leptin antibody ELISA value; sample 11, blood donor serum/plasma
[16] = target: non-mutated human leptin (human) (UniProt P41159); assay: ELISA, plate-bound leptin receptor-Fc; sample 12, blood donor serum/plasma BB-3935
[17] = target: non-mutated human leptin (human) (UniProt P41159); assay: receptor-Fc ELISA value divided by anti-leptin antibody ELISA value; WHO standard 2 ng/ml

Chain of UniProt P41159 (P41159 22-167, change not shown): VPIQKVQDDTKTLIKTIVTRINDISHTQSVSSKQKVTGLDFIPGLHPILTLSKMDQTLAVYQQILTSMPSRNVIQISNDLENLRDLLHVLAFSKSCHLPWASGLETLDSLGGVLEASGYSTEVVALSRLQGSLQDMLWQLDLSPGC

measured value functional leptin (concentration read from standard curve) [1]: 490 ng/mL
quotient of functional leptin and total leptin [2]: 0.99
quotient of functional leptin and total leptin [3]: 0.85
measured value functional leptin (concentration read from standard curve) [4]: 278 µg/mL
measured value functional leptin (concentration read from standard curve) [5]: 2.81 ng/mL
measured value functional leptin (concentration read from standard curve) [6]: 1.83 ng/mL
quotient of functional leptin and total leptin [7]: 0.91
measured value functional leptin (concentration read from standard curve) [8]: 24 ng/mL
quotient of functional leptin and total leptin [9]: 0.98
measured value functional leptin (concentration read from standard curve) [10]: 6.05 ng/mL
quotient of functional leptin and total leptin [11]: 0.87
measured value functional leptin (concentration read from standard curve) [12]: 7.25 ng/mL
measured value functional leptin (concentration read from standard curve) [13]: 4.61 ng/mL
quotient of functional leptin and total leptin [14]: 1.14
quotient of functional leptin and total leptin [15]: 0.96
measured value functional leptin (concentration read from standard curve) [16]: 34.1 ng/mL
quotient of functional leptin and total leptin [17]: 0.99
Substance: Recombinant Human Leptin R Fc Chimera, Catalog Number 389-LR/CF, R & D Systems (amino acid sequence Thr20-Asp839 of the human leptin receptor) (from UniProt P48357 20-839) (Fc fusion)
